From PMC2723105, “DNA binding by Corynebacterium glutamicum TetR-type transcription regulator AmtR”
Substitutions are numbered along the chain they refer to.

Legend:
Assay in all cases: EMSA
Settings in all cases: EMSA: DIG gel shift kit (Roche) conditions, 0.04 ng DNA, native 6% PAGE in 0.5x TBE; SPR: HBS-EP running buffer, 25 °C, BIAcoreX, nonspecific 30-mer DNA in the …
[1] = target: T1, AmtR-MBP Y58A Y58A (Corynebacterium glutamicum ATCC13032) (UniProt H7C699)
T1 sequence: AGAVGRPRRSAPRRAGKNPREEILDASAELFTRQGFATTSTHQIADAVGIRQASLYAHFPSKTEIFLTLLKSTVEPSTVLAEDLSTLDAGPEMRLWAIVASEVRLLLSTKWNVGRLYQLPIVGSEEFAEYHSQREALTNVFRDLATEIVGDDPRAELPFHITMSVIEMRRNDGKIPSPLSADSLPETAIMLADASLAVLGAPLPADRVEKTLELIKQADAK

[2] = target: T2, AmtR-MBP S55A S55A (Corynebacterium glutamicum ATCC13032) (UniProt H7C699)
T2 sequence: T1 sequence with S54A, A57Y

[3] = target: T3, AmtR-MBP Y57A Y57A (Corynebacterium glutamicum ATCC13032) (UniProt H7C699)
T3 sequence: T1 sequence with Y56A, A57Y

[4] = target: T4, AmtR-MBP T42A T42A (Corynebacterium glutamicum ATCC13032) (UniProt H7C699)
T4 sequence: T1 sequence with T41A, A57Y

[5] = tested on: AmtR-MBP L71A (Corynebacterium glutamicum ATCC13032)
[6] = tested on: AmtR-MBP E30A (Corynebacterium glutamicum ATCC13032)
[7] = tested on: AmtR-MBP T33A (Corynebacterium glutamicum ATCC13032)

| Substance | binding [1] | Kd [2] | binding [3] | binding [4] | Kd [5] | Kd [6] | Kd [7] |
| --- | --- | --- | --- | --- | --- | --- | --- |
| GCTGGGCTAGAAACCCGATAAGCGAGAACCACCTGTCGGATGTTGTCTGGCAGGTGGTTTTCTTTTGCCTGGGTACCACCAAAAAGCAGCTGTGATGCACTTAACAATTCATTAAATTACCTGTTAAACTATAGAAAATATCCAAAACCCTCCAAAACCTATTCTATAGATCTATTGAAATTAGTTTCTGTAGGTCTATAGTTAGAGCTGGTTCAAGGGGTGTCAATCCCAAAAGGCACTCCTTGAACTCATGAAAAAGCTTGACAAAACTTCAACGTCAAAGGAGGTCATCCACGC (double strand) [amtB promoter PCR fragment] | binds more weakly | 71 µM | binds more weakly | binds |  |  |  |
| amtB promoter PCR fragment |  | 71 µM |  |  | 20 µM | 10 µM | 2.2 µM |
